# Assay results reported in article PMC11480844 (2024).
# B1: H2-Kb / Ed39 (parent complex)
# chain 1: GEQVEQRPPHLSVREGDSAVIICTYTDPNSYYFFWYKQEPGAGLQLLMKVFSSTEINEGQGFTVLLNKKDKQLSLNLTAAHPGDSAVYFCATMSNYNVLYFGSGTKLTVEP
# chain 2: GALVYQYPRRTICKSGTSMRMECQAVGFQATSVAWYRQSPQKTFELIALSTVNSAIKYEQNFTQEKFPISHPNLSFSSMTVLNAYLEDRGLYLCGARDGSYEQYFGPGTRLTVL
# chain 3: not shown
# chain 4: IQKTPQIQVYSRHPPENGKPNILNCYVTQFHPPHIEIQMLKNGKKIPKVEMSDMSFSKDWSFYILAHTEFTPTETDTYACRVKHDSMAEPKTVYWDRDM
# chain 5: SIINFEKL
# B2: H2-Kb / Ed33 (parent complex)
# chain 1: SQLAEENSWALSVHEGESVTVNCSYKTSITALQWYRQKSGKGPAQLILIRSNEREKRNGRLRATLDTSSQSSSLSITATRCEDTAVYFCATDHNNAGAKLTFGGGTRLTVRP
# chain 2: DAGVTQTPRHEVAEKGQTIILKCEPVSGHNDLFWYRQTKIQGLELLSYFRSKSLMEDGGAFKDRFKAEMLNSSFSTLKIQPTEPKDSAVYLCASSLYTNQAPLFGEGTRLSVL
# chain 3: not shown
# chain 4: B1 chain 4
# chain 5: SIINFEKL
# Variants of: B1
# Experiment: % of reporter cells activated (NFAT-GFP), raw
# Further: test concentration or dose not given here.
row,Variant,ratio to parent
1,chain 5 E6K,0.308
2,chain 5 E6S,0.0298
3,chain 5 E6M,0.0331
4,chain 5 E6F,0.00457
5,chain 5 E6W,0.00837
6,chain 5 E6V,0.0176
7,chain 5 E6L,0.0111
8,chain 5 E6G,0.00768
9,chain 5 E6P,0.00676
10,chain 5 F5N,0.484
11,chain 5 F5C,0.689
12,chain 5 F5K,0.374
13,chain 5 F5T,0.844
14,chain 5 F5Y,0.867
15,chain 5 F5R,0.562
16,chain 5 F5Q,0.712
17,chain 5 F5L,0.765
18,chain 5 F5P,0.281
19,chain 5 F5S,0.829
20,chain 5 F5H,0.791

row,Variant,ratio to parent
1,chain 5 F5G,0.454
2,chain 5 F5W,0.738
3,chain 5 K7V,0.115
4,chain 5 K7M,0.665
5,chain 5 K7G,0.0989
6,chain 5 K7N,0.0309
7,chain 5 K7T,0.359
8,chain 5 K7R,0.355
9,chain 5 K7D,0.00558
10,chain 5 K7C,0.331
11,chain 5 K7P,0.326
12,chain 5 K7E,0.00639
13,chain 5 K7S,0.293
14,chain 5 K7W,0.355
15,chain 5 K7Q,0.865
16,chain 5 K7H,0.0199
17,chain 5 I2E,0.719
18,chain 5 I2M,0.907
19,chain 5 I2S,0.779
20,chain 5 I2N,0.18

row,Variant,ratio to parent
1,chain 5 I2F,0.683
2,chain 5 I2K,0.396
3,chain 5 I2G,0.841
4,chain 5 I2W,0.453
5,chain 5 I2P,0.58
6,chain 5 I2T,0.781
7,chain 5 I2L,1.03
8,chain 5 I2C,0.926
9,chain 5 I3T,0.416
10,chain 5 I3E,0.558
11,chain 5 I3M,0.564
12,chain 5 I3L,0.706
13,chain 5 I3W,0.472
14,chain 5 I3K,0.286
15,chain 5 I3H,0.0308
16,chain 5 I3G,0.156
17,chain 5 I3A,0.56
18,chain 5 I3Q,0.3
19,chain 5 I3S,0.12

# Continued, values first:
row,ratio to parent,Variant
1,0.00514,chain 5 S1F
2,0.0616,chain 5 S1R
3,0.0798,chain 5 S1H
4,0.00689,chain 5 S1N
5,0.0783,chain 5 S1K
6,0.00419,chain 5 S1L
7,0.272,chain 5 S1G
8,0.00338,chain 5 S1I
9,0.351,chain 5 S1Y
10,0.00499,chain 5 S1M
11,0.0243,chain 5 S1V
12,0.00838,chain 5 N4I
13,0.124,chain 5 N4H
14,0.114,chain 5 N4G
15,0.0119,chain 5 N4F
16,0.22,chain 5 N4R
17,1.25,chain 5 N4D

row,ratio to parent,Variant
1,0.106,chain 5 N4E
2,0.0243,chain 5 N4A
3,0.00338,chain 5 N4Q
4,0.00879,chain 5 N4M
5,0.83,chain 5 L8Y
6,0.483,chain 5 L8C
7,0.663,chain 5 L8A
8,0.788,chain 5 L8H
9,0.591,chain 5 L8V
10,0.64,chain 5 L8F
11,0.762,chain 5 L8M
12,0.462,chain 5 L8S
13,0.676,chain 5 L8G
14,0.801,chain 5 L8R
15,0.771,chain 5 L8I
16,0.703,chain 5 L8T
17,0.0483,chain 5 K7Y

# Variants of: B2
# Experiment: % of reporter cells activated (NFAT-GFP), raw
row,Variant,ratio to parent
1,chain 5 F5G,0.844
2,chain 5 F5K,0.862
3,chain 5 F5Q,1.01
4,chain 5 F5N,0.876
5,chain 5 F5R,0.982
6,chain 5 F5E,0.625
7,chain 5 F5C,1.05
8,chain 5 E6P,0.0303
9,chain 5 E6W,0.0137
10,chain 5 E6N,0.00413
11,chain 5 E6R,0.00434
12,chain 5 E6C,0.0452
13,chain 5 E6Y,0.182
14,chain 5 E6M,0.0967
15,chain 5 E6V,0.0218
16,chain 5 E6F,0.101
17,chain 5 E6H,0.223
18,chain 5 K7P,0.372

row,Variant,ratio to parent
1,chain 5 K7A,0.227
2,chain 5 K7Q,0.0157
3,chain 5 K7F,0.0757
4,chain 5 K7I,0.018
5,chain 5 K7M,0.0938
6,chain 5 K7V,0.427
7,chain 5 K7S,0.754
8,chain 5 I2R,0.807
9,chain 5 I2T,0.981
10,chain 5 I2V,1.04
11,chain 5 I2F,0.774
12,chain 5 I2L,1.05
13,chain 5 I2N,1.01
14,chain 5 I2D,0.897
15,chain 5 I3D,0.634
16,chain 5 I3H,0.895
17,chain 5 I3T,1.04
18,chain 5 I3M,1.07

# Further lines, results first:
row,ratio to parent,Variant
1,0.74,chain 5 K7W
2,0.157,chain 5 K7Y
3,0.0904,chain 5 N4C
4,0.135,chain 5 N4D
5,0.000438,chain 5 N4P
6,0.428,chain 5 N4L
7,0.0234,chain 5 N4F
8,0.846,chain 5 L8P
9,0.941,chain 5 L8K
10,0.968,chain 5 L8H
11,0.881,chain 5 L8W
12,0.905,chain 5 L8N
13,0.731,chain 5 L8D
14,1.01,chain 5 L8Y
15,0.91,chain 5 S1Q
16,0.634,chain 5 S1H
17,0.182,chain 5 S1W
18,0.173,chain 5 S1N
19,0.121,chain 5 S1K
20,0.48,chain 5 S1G
21,1.05,chain 5 S1D
